Source: publication PMC7319273 (2020)

Molecular target: SARS-CoV-2 Spike protein extracellular domain (S-ECD), as used in ELISA and BLI (SARS-CoV-2, UniProt P0DTC2 14-1208)
Experiment: BLI

B1: 4A8 (human monoclonal antibody) (antibody, V domains shown)
VH: EVQLVESGAEVKKPGASVKVSCKVSGYTLTELSMHWVRQAPGKGLEWMGGFDPEDGETMYAQKFQGRVTMTEDTSTDTAYMELSSLRSEDTAVYYCATSTAVAGTPDLFDYYYGMDVWGQGTTVTVSS
VL: EIVMTQSPLSSPVTLGQPASISCRSSQSLVHSDGNTYLSWLQQRPGQPPRLLIYKISNRFSGVPDRFSGSGAGTDFTLKISRVEAEDVGVYYCTQATQFPYTFGQGTKVDIK
Kd: 996 pM

B2: 2M-10B11 (human monoclonal antibody) (antibody, V domains shown)
VH: EVQLVESGGGLVQPGGSLRLSCAASGFTVSSNYMSWVRQAPGKGLEWVSVIYSGGSTYYADSVKGRFTISRDNSKNTLYLQMNSLRAEDTAVYYCARATWLRGVMDVWGQGTTVTVSS
VL: QSALTQPHSVSESPGKTVTISCTGSSGSIASNYVQWYQQRPGSAPTTVIYEDNQRPSGVPDRFSGSIDSSSNSASLTISGLKTEDEADYYCQSYDSSNHWVFGGGTKLTVL
Kd: 342 pM
